Measurements: patent US20060062729A1, “Enhanced ligand binding to neurotensin receptors” (priority 2004, published 2006)
Each block holds one molecule with its values, some of them ahead of it. Non-standard residues stand in square brackets, D forms with d. Residues, ends and D or L forms follow the SMILES beside them. *: point of attachment. PhAc = O=C(Cc1ccccc1)*

Assays:
NTR1 [1] = target: T1, NTR1 (Homo sapiens, UniProt P30989); assay: ^125I-NT binding to isolated PC3 cell membranes; design: Ab-NTR1 detected two major bands in extracts of PC3 cells, the parent protein of 50 kDa; endogenous in cells; host or cells: PC3 cells (ATCC)
bombesin receptor = target: T2, bombesin receptor (Homo sapiens, UniProt P30550); assay: ^125I-[Nle^14]-bombesin binding to PC3 cells; details: 37° C.
T2 construct: endogenous in cells; host or cells: PC3 cells (ATCC)

5-LOX = target: T3, 5-LOX (Homo sapiens, UniProt P09917); details: range of reported values, various blood cell systems; cited from earlier work
T3 sequence (P09917 1-674): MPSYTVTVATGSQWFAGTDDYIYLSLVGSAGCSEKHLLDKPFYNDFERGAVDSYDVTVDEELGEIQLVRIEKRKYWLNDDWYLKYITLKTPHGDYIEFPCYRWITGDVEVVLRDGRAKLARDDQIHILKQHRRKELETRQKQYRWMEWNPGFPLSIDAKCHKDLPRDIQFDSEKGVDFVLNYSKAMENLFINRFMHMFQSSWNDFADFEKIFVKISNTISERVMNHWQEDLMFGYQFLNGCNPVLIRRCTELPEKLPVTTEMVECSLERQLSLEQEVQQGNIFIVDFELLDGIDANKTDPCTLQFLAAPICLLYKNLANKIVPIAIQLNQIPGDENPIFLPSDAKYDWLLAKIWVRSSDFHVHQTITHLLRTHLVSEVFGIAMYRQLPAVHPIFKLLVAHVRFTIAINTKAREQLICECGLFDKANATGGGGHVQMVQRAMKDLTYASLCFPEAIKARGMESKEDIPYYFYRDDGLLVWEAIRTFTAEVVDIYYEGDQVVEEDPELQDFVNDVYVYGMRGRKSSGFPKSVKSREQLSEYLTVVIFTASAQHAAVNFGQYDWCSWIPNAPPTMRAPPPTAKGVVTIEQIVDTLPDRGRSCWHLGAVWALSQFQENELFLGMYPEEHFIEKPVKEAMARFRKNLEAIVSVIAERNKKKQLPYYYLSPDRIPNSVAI

NTR1 [2] = target: T1, NTR1; assay: ^125I-NT binding to PC3 cells; details: LOX blockers
[3] = target: T4, vasopressin (V1a) receptor (Homo sapiens, UniProt P37288); assay: ^125I-HOLVA binding to PC3 cells
T4 construct: endogenous in cells; host or cells: PC3 cells (ATCC)

[4] = target: bombesin receptor of PC3 cells; assay: 125I-ligand binding to PC3 cells with 60 µM phloretin
[5] = target: bombesin receptor of PC3 cells; assay: 125I-ligand binding to PC3 cells, 37 C, with 12 µM AA-861
[6] = target: bombesin receptor of PC3 cells; assay: 125I-ligand binding to PC3 cells with 60 µM SKF-96365
[7] = target: bombesin receptor of PC3 cells; assay: 125I-ligand binding to PC3 cells with 12 µM phloretin
[8] = target: bombesin receptor of PC3 cells; assay: 125I-ligand binding to PC3 cells, 37 C, with 12 µM NDGA
[9] = target: bombesin receptor of PC3 cells; assay: Scatchard analysis, PC3 cells
[10] = target: bombesin receptor of PC3 cells; assay: 125I-ligand binding to PC3 cells, 37 C, with 12 µM Rev-5901
[11] = target: bombesin receptor of PC3 cells; assay: 125I-ligand binding to PC3 cells with 12 µM NIF
[12] = target: bombesin receptor of PC3 cells; assay: 125I-ligand binding to PC3 cells with 60 µM verapamil
[13] = target: bombesin receptor of PC3 cells
[14] = target: bombesin receptor of PC3 cells; assay: 125I-ligand binding to PC3 cells with 60 µM NIF
[15] = target: bombesin receptor of PC3 cells; assay: 125I-ligand binding to PC3 cells, 37 C, with 60 µM AA-861
[16] = target: bombesin receptor of PC3 cells; assay: 125I-ligand binding to PC3 cells
[17] = target: bombesin receptor of PC3 cells; assay: 125I-ligand binding to PC3 cells, 37 C, with 12 µM MK886
[18] = target: bombesin receptor of PC3 cells; assay: 125I-ligand binding to PC3 cells, 37 C, with 60 µM MK886
[19] = target: bombesin receptor of PC3 cells; assay: 125I-ligand binding to PC3 cells, 37 C, with 60 µM Rev-5901
[20] = target: bombesin receptor of PC3 cells; assay: 125I-ligand binding to PC3 cells, 37 C, with 60 µM NDGA
[21] = target: bombesin receptor of PC3 cells; assay: 125I-ligand binding to PC3 cells with 12 µM verapamil
[22] = target: bombesin receptor of PC3 cells; assay: 125I-ligand binding to PC3 cells with 12 µM SKF-96365
[23] = target: neurotensin receptor NTR1 of PC3 cells (human) (UniProt P30989); assay: UV crosslinking to PC3 cells with NIF, immunoprecipitation with Ab-NTR1
[24] = target: neurotensin receptor NTR1 of PC3 cells (human) (UniProt P30989); assay: UV crosslinking to PC3 cells with 50 µM MK886, immunoprecipitation with antiserum to NTR1
[25] = target: neurotensin receptor NTR1 of PC3 cells (human) (UniProt P30989); assay: UV crosslinking to PC3 cells with 50 µM NDGA, immunoprecipitation with antiserum to NTR1
[26] = target: neurotensin receptor NTR1 of PC3 cells (human) (UniProt P30989); assay: UV crosslinking to PC3 cells with phloretin, immunoprecipitation with Ab-NTR1
[27] = target: neurotensin receptor NTR1 of PC3 cells (human) (UniProt P30989); assay: UV crosslinking to PC3 cells with verapamil, immunoprecipitation with Ab-NTR1
[28] = target: vasopressin (V1a) receptor of PC3 cells (UniProt P37288); assay: 125I-ligand binding to PC3 cells with 60 µM phloretin
[29] = target: vasopressin (V1a) receptor of PC3 cells (UniProt P37288); assay: 125I-ligand binding to PC3 cells, 37 C, with 12 µM AA-861
[30] = target: vasopressin (V1a) receptor of PC3 cells (UniProt P37288); assay: 125I-HOLVA binding to PC3 cell membranes with 60 µM SKF-96365
[31] = target: vasopressin (V1a) receptor of PC3 cells (UniProt P37288); assay: 125I-ligand binding to PC3 cells with 60 µM SKF-96365
[32] = target: vasopressin (V1a) receptor of PC3 cells (UniProt P37288); assay: 125I-ligand binding to PC3 cells with 12 µM phloretin
[33] = target: vasopressin (V1a) receptor of PC3 cells (UniProt P37288); assay: 125I-ligand binding to PC3 cells, 37 C, with 12 µM NDGA
[34] = target: vasopressin (V1a) receptor of PC3 cells (UniProt P37288); assay: Scatchard analysis, PC3 cells
[35] = target: vasopressin (V1a) receptor of PC3 cells (UniProt P37288); assay: 125I-ligand binding to PC3 cells, 37 C, with 12 µM Rev-5901
[36] = target: vasopressin (V1a) receptor of PC3 cells (UniProt P37288); assay: 125I-ligand binding to PC3 cells with 12 µM NIF
[37] = target: vasopressin (V1a) receptor of PC3 cells (UniProt P37288); assay: 125I-ligand binding to PC3 cells with 60 µM verapamil
[38] = target: vasopressin (V1a) receptor of PC3 cells (UniProt P37288)
[39] = target: vasopressin (V1a) receptor of PC3 cells (UniProt P37288); assay: 125I-HOLVA binding to PC3 cell membranes with 60 µM verapamil
[40] = target: vasopressin (V1a) receptor of PC3 cells (UniProt P37288); assay: 125I-HOLVA binding to PC3 cell membranes with 60 µM NIF
[41] = target: vasopressin (V1a) receptor of PC3 cells (UniProt P37288); assay: 125I-ligand binding to PC3 cells with 60 µM NIF
[42] = target: vasopressin (V1a) receptor of PC3 cells (UniProt P37288); assay: 125I-ligand binding to PC3 cells, 37 C, with 60 µM AA-861
[43] = target: vasopressin (V1a) receptor of PC3 cells (UniProt P37288); assay: 125I-ligand binding to PC3 cells
[44] = target: vasopressin (V1a) receptor of PC3 cells (UniProt P37288); assay: 125I-ligand binding to PC3 cells, 37 C, with 12 µM MK886
[45] = target: vasopressin (V1a) receptor of PC3 cells (UniProt P37288); assay: 125I-ligand binding to PC3 cells, 37 C, with 60 µM MK886
[46] = target: vasopressin (V1a) receptor of PC3 cells (UniProt P37288); assay: 125I-ligand binding to PC3 cells, 37 C, with 60 µM Rev-5901
[47] = target: vasopressin (V1a) receptor of PC3 cells (UniProt P37288); assay: 125I-ligand binding to PC3 cells, 37 C, with 60 µM NDGA
[48] = target: vasopressin (V1a) receptor of PC3 cells (UniProt P37288); assay: 125I-ligand binding to PC3 cells with 12 µM verapamil
[49] = target: vasopressin (V1a) receptor of PC3 cells (UniProt P37288); assay: 125I-ligand binding to PC3 cells with 12 µM SKF-96365

Chain of neurotensin receptor NTR1 of PC3 cells (human) (P30989 whole entry): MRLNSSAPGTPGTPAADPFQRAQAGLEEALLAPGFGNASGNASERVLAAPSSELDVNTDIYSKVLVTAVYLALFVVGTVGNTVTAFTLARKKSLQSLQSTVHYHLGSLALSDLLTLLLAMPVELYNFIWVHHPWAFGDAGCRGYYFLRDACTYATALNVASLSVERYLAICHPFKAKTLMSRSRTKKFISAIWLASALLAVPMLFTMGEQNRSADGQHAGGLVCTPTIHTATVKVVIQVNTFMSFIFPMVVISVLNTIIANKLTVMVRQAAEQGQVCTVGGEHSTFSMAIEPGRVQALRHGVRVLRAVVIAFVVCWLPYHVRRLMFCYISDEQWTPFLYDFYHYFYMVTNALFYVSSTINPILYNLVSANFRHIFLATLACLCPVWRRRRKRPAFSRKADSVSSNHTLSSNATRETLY
T1 sequence (P30989 whole entry): as above
Chain of vasopressin (V1a) receptor of PC3 cells (P37288 whole entry): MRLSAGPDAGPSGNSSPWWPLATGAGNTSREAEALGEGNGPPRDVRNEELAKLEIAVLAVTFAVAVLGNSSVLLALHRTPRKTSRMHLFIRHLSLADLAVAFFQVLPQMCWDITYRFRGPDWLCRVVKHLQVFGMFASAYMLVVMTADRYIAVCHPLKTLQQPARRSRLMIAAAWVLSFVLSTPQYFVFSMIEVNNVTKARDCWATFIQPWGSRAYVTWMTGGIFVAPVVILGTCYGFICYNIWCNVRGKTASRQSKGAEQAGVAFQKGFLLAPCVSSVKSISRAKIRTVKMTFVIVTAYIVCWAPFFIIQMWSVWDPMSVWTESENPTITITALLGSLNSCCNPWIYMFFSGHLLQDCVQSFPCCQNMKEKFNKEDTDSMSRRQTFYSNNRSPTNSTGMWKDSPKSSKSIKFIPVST
Chain of bombesin receptor of PC3 cells (P30550 whole entry): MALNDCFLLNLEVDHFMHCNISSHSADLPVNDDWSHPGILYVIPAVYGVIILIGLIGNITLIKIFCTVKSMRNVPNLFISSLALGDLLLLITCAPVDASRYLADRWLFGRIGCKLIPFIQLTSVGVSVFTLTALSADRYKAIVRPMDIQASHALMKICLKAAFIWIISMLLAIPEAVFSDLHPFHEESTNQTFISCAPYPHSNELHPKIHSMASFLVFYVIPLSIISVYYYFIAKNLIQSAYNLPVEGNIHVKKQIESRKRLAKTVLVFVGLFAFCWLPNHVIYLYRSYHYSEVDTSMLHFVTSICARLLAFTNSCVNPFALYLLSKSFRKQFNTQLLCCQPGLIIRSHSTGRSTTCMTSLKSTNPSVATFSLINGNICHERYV
T4 sequence (P37288 whole entry): as the sequence (P37288 whole entry) above
T2 sequence (P30550 whole entry): as the sequence (P30550 whole entry) above

Molecule: CCNC(=O)[C@H]1O[C@@H](n2cnc3c(N)nc(NCCc4ccc(CCC(=O)O)cc4)nc32)[C@H](O)[C@@H]1O [CGS21683]
- NT Binding Efficacy % increase (NTR1 [2]): 228 % increase
- IC50 (5-LOX): 10 to 1000 nM

Molecule: CCCCCC#CCC#CCC#CCC#CCCCC(=O)O [ETYA, 5,8,11,14-eicosatetraynoic acid]
- IC50 (5-LOX): 6000 to 50000 nM

Molecule: CCOc1ccc(C[C@@H](NC(=O)Cc2ccccc2)C(=O)N[C@@H](Cc2ccccc2)C(=O)N[C@@H](CCC(N)=O)C(=O)N[C@@H](CC(N)=O)C(=O)N[C@@H](CCCCN)C(=O)N2CCC[C@H]2C(=O)N[C@@H](CCCNC(=N)N)C(N)=O)cc1 [^125I-HOLVA, des-Gly-[Phaa1, D-Tyr(Et)2, Lys6, Arg8]-vasopressin] (PhAc-[dY](Et)FQNKPR-NH2; N-terminus and C-terminus assumed)
- Specific Binding (% of total) ([3]; 10^5 cpm ^125I-ligand): 77 % of total
- Bmax ([3]; Scatchard analysis): 156 ± 12 fmol/mg

More lines, main results first:

- Specific NT-Binding (% control) (NTR1 [1]; 10 μM LOX pathway blocker): 107 ± 4 % control
- Specific NT-Binding (% control) (NTR1 [1]; 25 μM LOX pathway blocker): 109 ± 4 % control
- Specific NT-Binding (% control) (NTR1 [1]; 75 μM LOX pathway blocker): 110 ± 5 % control
- Specific Binding (% control) of ^125I-[Nle14]-bombesin (bombesin receptor; 12 μM LOX blocker): 112 ± 4 % control
- Specific Binding (% control) of ^125I-[Nle14]-bombesin (bombesin receptor; 60 μM LOX blocker): 135 ± 6 % control
Molecule: CC1=C(C)C(=O)C(CCCCC#CCCCC#CCO)=C(C)C1=O [AA861]
- IC50 (5-LOX): 100 to 2000 nM

- Specific Binding (% control) [4]: 111 % control
- Specific Binding (% control) [5]: 112 % control
- Specific Binding (% control) [6]: 106 % control
- Specific Binding (% control) [7]: 104 % control
- Specific Binding (% control) [8]: 110 % control
- Bmax [9]: 1020 fmol/mg
- Specific Binding (% control) [10]: 107 % control
- Specific Binding (% control) [11]: 108 % control
- Specific Binding (% control) [12]: 104 % control
- Ki [13]: 0.6 nM
- Specific Binding (% control) [14]: 119 % control
- Specific Binding (% control) [15]: 135 % control
- Specific Binding (% of total) [16]: 95 % of total
- Specific Binding (% control) [17]: 106 % control
- Specific Binding (% control) [18]: 125 % control
- Specific Binding (% control) [19]: 119 % control
- Specific Binding (% control) [20]: 127 % control
- Specific Binding (% control) [21]: 104 % control
- Specific Binding (% control) [22]: 99 % control
Molecule: [Tyr^4, Nle^14]-bombesin (peptide)

- fold increase in radioactivity associated with NTR1 [23]: 2.8 fold
- fold increase in radioactivity associated with NTR1 [24]: 2.7 fold
- fold increase in radioactivity associated with NTR1 [25]: 2.6 fold
- fold increase in radioactivity associated with NTR1 [26]: 1.8 fold
- fold increase in radioactivity associated with NTR1 [27]: 1.5 fold
Molecule: ^125I-[4-azido-Phe^6]-NT (peptide)

- Specific Binding (% control) [28]: 73 % control
- Specific Binding (% control) [29]: 87 % control
- Binding (% control) [30]: 110 % control
- Specific Binding (% control) [31]: 50 % control
- Specific Binding (% control) [32]: 92 % control
- Specific Binding (% control) [33]: 84 % control
- Bmax [34]: 156 fmol/mg
- Specific Binding (% control) [35]: 68 % control
- Specific Binding (% control) [36]: 95 % control
- Specific Binding (% control) [37]: 58 % control
- Ki [38]: 0.5 nM
- Binding (% control) [39]: 91 % control
- Binding (% control) [40]: 90 % control
- Specific Binding (% control) [41]: 59 % control
- Specific Binding (% control) [42]: 57 % control
- Specific Binding (% of total) [43]: 77 % of total
- Specific Binding (% control) [44]: 93 % control
- Specific Binding (% control) [45]: 67 % control
- Specific Binding (% control) [46]: 42 % control
- Specific Binding (% control) [47]: 50 % control
- Specific Binding (% control) [48]: 85 % control
- Specific Binding (% control) [49]: 80 % control
Molecule: des-Gly-[Phaa1, D-Tyr(Et)2, Lys6, Arg8]-vasopressin (HOLVA) (peptide)
